Entries after “also recorded” stand apart in the source; their conditions may differ.
Key:
[1] = tested on: ID8 ovarian tumour; conditions: mouse, in vivo
Method: Control mice received vehicle (PBS) alone. At time points from 4 hr to 7 days post-injection, mice were culled and selected tissues (liver, kidney, spleen, intestine, ovary+fallopian tube/ovarian tumour (as relevant), brain, heart, lung) were harvested. Tissue distribution and clearance were assessed by ALEXA647 or ALEXA750 fluorescence using an IVIS Lumina III Imaging System (Perkin Elmer). Bright-field (auto-exposure) and fluorescence imaging (ALEXA647 ex640, em670; or ALEXA750 ex740, em790 nm). Spectral unmixing and image analysis were performed as previously described (PMID: 30602661; Wilson et al., Cancers (Basel). 2018 Dec. 31; 11(1), E32). Background average radiant efficiency from vehicle-treated animals were subtracted from fluorescence measurements in each case, and the resulting data plotted for comparison.

[2] = tested on: SW620 colorectal carcinoma; test: In vitro wound repair assay; format: cell-based; conditions: antibody 1 μg/ml; 16 hours
Method: (§1) In vitro wound repair assay. Ovarian cancer cells (or other cancer cell lines—BT16, NCI-H1573, AN3CA, SW620 and MDA-MB-468) were grown in complete medium to confluency in a 12-well plate, then serum-starved overnight to synchronize at G0. The following day cell culture medium was removed, and cell monolayers were wounded by scraping with a pipette tip attached to suction. Non-adherent cells were removed by gentle washes with PBS, and complete growth medium with or without mAb AN-17 (1 μg/ml) or commercial KRT14 polyclonal antibody (1 μg/ml) was replaced. The wound area was imaged under a phase microscope (Leica) at regular intervals ranging from 0-72 h. Wound closure was measured in image series using AnalySIS LS Research Software (Olympus) to determine the area of the wound on each day. Experiments were repeated in triplicate with at least six wound areas observed per growth condition.
(§2) In vitro wound repair assays were conducted using AN3CA endometrial carcinoma and SW620 colorectal carcinoma lines. Cells were grown in complete medium to confluency in a 12-well plate, then serum-starved overnight to synchronize at G0. The following day cell culture medium was removed, and cell monolayers were wounded by scraping with a pipette tip attached to suction. […] Wound closure was measured in image series using AnalySIS LS Research Software (Olympus) to determine the area of the wound on each day. […]

[3] = tested on: AN3CA endometrial carcinoma; test: In vitro wound repair assay; format: cell-based; conditions: antibody 1 μg/ml; 16 hours
Method: as §1, §2

[4] = molecular target: T1, KRT14 (Homo sapiens, UniProt P02533); test: Immunofluorescence staining of ovarian cancer cell lines SKOV-3, Ovcar4 and Cov362.3; format: cell-based; set-up: endogenous in cells; host or cells: SKOV-3, Ovcar4, Cov362.3; conditions: 1 μg/ml
T1 sequence (P02533 1-472): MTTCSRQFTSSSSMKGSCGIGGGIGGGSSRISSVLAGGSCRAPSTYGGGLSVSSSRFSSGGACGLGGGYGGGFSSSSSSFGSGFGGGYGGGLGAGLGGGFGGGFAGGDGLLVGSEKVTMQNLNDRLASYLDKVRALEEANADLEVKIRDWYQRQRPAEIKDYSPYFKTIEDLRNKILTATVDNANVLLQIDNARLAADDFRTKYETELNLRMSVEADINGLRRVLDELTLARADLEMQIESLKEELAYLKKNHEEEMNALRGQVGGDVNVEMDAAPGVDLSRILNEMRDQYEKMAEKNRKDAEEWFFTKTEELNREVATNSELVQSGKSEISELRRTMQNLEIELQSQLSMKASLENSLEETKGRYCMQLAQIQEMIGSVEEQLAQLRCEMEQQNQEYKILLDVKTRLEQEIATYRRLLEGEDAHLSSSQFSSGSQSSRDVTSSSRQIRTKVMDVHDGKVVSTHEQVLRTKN
Method: The ovarian cancer cell lines SKOV-3, Ovcar4 and Cov362.3 were seeded onto 96 well black fluortrac imaging plates. Intact or fixed (1% paraformaldehyde; PFA) and permeabilized (0.1% Triton X) cells were stained using mAb AN-17. For fixed cells, samples were blocked in 10% fetal bovine serum (FBS) and then stained with 1 μg/ml mAb AN-17 for one hour at room temperature. Cells were subsequently washed with PBS and stained with the Alexa Fluor®-647 goat anti-mouse secondary at 1:2000 for one hour at room temperature. For intact cells, samples were stained with 1 μg/ml mAb AN-17 conjugated to Alexa-647 in PBS containing 1% FBS for two hours at 37° C., the medium was replaced with fresh PBS/1% FBS and cells were immediately imaged. Samples were imaged using the Cytation 3 multimode reader at 4× magnification.

B1: mAb AN-17: monoclonal anti-KRT14 antibody; heavy chain variable region SEQ ID NO:3, light chain variable region SEQ ID NO:5 (clone AN-17A RG4.E5b.A7.B4) (antibody, listed as Mus musculus, V domains shown)
VH: QVQLKESGPGLVAPSQSLSITCTVSGFSLSRYSVHWVRQPPGKGLEWLGMIWGGGSTDYNSALKSRLSISKDNSKSQVFLKMNSLQTDDTAMYYCARKDYGYSYFDYWGQGTTLTVSS
VL: DVLMTQTPLSLPVSLGDQASISCRSSQSIVHSNGNTYLEWYLQKPGQSPKLLIYKVSNRFSGVPDRFSGSGSGTDFTLKISRVEAEDLGVYYCFQGSHVPFTFGSGTKLEIKRADAAPTVS
initial levels in tumour tissue vs reproductive tract of mice without tumours [1]: 2 orders of magnitude
wound closure / migration, SW620 [2]: failed to close the wound; also recorded: impaired
wound closure / migration, AN3CA [3]: failed to close the wound; also recorded: impaired
staining localization ([4]; fixed and permeabilized cells): Specific intracellular cytoplasmic localization
staining localization ([4]; intact live cells): predominant cell surface localization
